Measurements reported in patent publication US6399326 (Harvard, dated 2002).

Key:
[1] = target: T1, PTP-NP (on cells transfected with PTP-NP) (mouse, UniProt P80560 28-1001); experiment: NP-AP probe on cells transfected with PTP-NP (data not shown)
T1 construct: also called PTP-NP type 1; neural and pancreatic receptor protein tyrosine phosphatase
T1 chain: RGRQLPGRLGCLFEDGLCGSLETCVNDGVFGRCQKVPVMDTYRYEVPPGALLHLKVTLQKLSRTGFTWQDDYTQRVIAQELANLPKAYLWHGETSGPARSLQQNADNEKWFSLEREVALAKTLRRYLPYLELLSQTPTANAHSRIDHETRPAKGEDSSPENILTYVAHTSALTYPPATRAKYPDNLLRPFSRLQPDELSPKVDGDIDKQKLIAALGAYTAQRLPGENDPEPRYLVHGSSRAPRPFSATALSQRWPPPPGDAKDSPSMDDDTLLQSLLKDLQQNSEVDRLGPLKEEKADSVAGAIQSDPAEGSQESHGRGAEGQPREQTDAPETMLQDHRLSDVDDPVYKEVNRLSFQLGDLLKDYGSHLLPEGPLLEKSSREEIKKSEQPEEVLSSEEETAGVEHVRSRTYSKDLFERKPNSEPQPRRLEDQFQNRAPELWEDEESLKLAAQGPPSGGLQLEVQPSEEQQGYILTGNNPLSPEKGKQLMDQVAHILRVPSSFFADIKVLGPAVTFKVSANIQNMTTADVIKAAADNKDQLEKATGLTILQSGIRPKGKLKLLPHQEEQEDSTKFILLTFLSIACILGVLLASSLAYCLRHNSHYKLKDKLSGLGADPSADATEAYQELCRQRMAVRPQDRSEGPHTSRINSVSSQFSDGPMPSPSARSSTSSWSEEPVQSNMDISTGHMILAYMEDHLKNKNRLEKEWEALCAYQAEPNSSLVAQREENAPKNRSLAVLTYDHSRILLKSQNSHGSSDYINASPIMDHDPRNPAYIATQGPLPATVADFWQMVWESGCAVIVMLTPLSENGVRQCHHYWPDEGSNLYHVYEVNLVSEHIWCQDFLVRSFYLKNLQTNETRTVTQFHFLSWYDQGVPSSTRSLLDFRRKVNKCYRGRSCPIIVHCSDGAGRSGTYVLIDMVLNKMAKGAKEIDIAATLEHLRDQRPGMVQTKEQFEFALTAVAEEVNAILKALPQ

[2] = target: T2, PTP-NP extracellular domain marked with an immunoglobulin tag (mouse, UniProt P80560 28-600); experiment: in vitro binding of the two differently tagged extracellular domains (data not shown)
T2 construct: not shown: immunoglobulin tag
T2 chain: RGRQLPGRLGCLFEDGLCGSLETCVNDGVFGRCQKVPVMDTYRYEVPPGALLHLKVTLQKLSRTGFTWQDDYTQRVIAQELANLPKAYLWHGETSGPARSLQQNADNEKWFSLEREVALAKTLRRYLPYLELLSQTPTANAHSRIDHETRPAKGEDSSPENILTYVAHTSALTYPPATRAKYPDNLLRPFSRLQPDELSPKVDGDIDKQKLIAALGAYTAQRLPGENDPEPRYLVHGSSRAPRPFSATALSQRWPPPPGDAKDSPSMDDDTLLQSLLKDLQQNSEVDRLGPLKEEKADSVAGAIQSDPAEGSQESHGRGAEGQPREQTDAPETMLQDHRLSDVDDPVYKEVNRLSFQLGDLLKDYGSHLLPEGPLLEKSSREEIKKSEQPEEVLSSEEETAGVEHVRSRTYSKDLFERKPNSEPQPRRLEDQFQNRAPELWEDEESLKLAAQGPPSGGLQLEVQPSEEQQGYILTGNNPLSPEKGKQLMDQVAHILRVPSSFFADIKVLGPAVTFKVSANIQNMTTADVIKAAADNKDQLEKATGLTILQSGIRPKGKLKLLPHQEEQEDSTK

B1: NP-AP fusion protein (extracellular domain of PTP-NP fused to an alkaline phosphatase tag) (other)
chain: T2 chain
notes: Used as unpurified supernatant of transfected COS cells; also called NP-AP probe; not shown: limits and
B1: no binding [1]; no binding [2].
